Legend:
Test in all cases: cell-based or functional assay
[1] = biological target: T cell receptor (TCRab) (human)
CD14 = biological target: T1, CD14 (UniProt P08571)
T1 sequence: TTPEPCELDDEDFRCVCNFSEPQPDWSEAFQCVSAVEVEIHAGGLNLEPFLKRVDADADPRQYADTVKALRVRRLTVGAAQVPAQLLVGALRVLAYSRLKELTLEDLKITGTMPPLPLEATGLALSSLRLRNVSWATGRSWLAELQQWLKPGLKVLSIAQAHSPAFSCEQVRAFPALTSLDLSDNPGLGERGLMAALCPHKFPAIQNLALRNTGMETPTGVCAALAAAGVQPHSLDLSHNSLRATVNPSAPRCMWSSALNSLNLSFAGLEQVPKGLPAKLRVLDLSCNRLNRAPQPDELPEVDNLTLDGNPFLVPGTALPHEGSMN

human CD8a (human) = human CD8a (human) (UniProt P01732)
Sequence of UniProt P01732 (P01732 22-235): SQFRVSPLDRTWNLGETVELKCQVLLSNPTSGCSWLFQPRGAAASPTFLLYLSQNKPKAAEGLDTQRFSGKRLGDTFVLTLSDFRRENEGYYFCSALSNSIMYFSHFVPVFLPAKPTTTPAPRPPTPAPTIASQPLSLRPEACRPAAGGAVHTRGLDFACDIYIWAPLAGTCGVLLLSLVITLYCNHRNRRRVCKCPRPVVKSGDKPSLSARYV

B1: TCRab VHH (VHH)
VHH: EVQLVESGGGLVQPGGSLRLSCAASGDVHKINILGWYRQAPAKEREMVAHITIGDATDYADSAKGRFTISRDEAKNMVYLQMNSLKPEDTAVYFCRAYSRIYPYNYWGQGTLVTVSS
Q: Which percentage transduction of target negative cells (flow cytometry, day 7) [1] does the source give for B1 here?
A: < 1%

B2: membrane anchored anti-CD14 scFv (scFv)
scFv: DDVQLQQSGPGLVKPSQSLSLTCTVTGYSITSDSAWNWIRQFPGNRLEWMGYISYSGSTSYNPSLKSRISITRDTSKNQFFLQLNSVTTEDTATYYCVRGLRFAYWGQGTLVTVSSGGGGSGGGGSGGGGSDIVLTQSPASLAVSLGQRATISCRASESVDSYVNSFLHWYQQKPGQPPKLLIYRASNLQSGIPARFSGSGSRTDFTLTINPVEADDVATYYCQQSNEDPYTFGGGTKLEIK
Q: For B2, which percentage transduction of primary monocytes versus non-stimulated PBMCs (GFP, flow cytometry, day 7) (CD14) is on record?
A: < 2%

B3: membrane anchored VHH targeting human CD8a (VHH)
VHH: EVQLVESGGGLVQPGGSLRLSCAASGFTFDDYVIGWFRQAPGKGREGVACIRIFDRHTYYADSVKGRFTISSDNSKNTVYLQMNSLRAEDTATYYCAAGSFFGCTRPEGDMDYFGQGTLVQVQS
Q: With B3 as the binder, how does the percentage transduction of target negative cells (flow cytometry, day 7) (human CD8a (human)) read?
A: < 1%

B4: Nanobody (VHH) CD14 3RMB1 (VHH)
VHH: QVQLQESGGGLVQSGGSLRLSCAVSGSIFSIVDMGWYRQAPGKGRELVAELSDGSTNYADSVLGRFTISRDNAKNTVYLQMNSLKPEDTAVYYCNADLTGSSWSPYRYLEVWGQGTQVTVSS
Q: Which percentage transduction of target negative cells (flow cytometry, 7-14 days) (CD14) does the source give for B4 here?
A: < 1%
